From the supplement of paper PMC10567573

B1: FEM1A (parent)
chain: NIVEYLIQEQPGQEQVAGGEAQPG

Variants of: B1
Assay: protein stability index of a GFP-peptide fusion (GPS, HEK-293T) (PSI 1-6); higher = more stable
Conditions: c terminus: a fixed tail appended
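Further: lentivirally expressed fusions sorted by FACS into six bins by GFP to DsRed ratio, PSI derived from sequencing read proportions per bin multiplied by bin number.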

Point of comparison: NIVEYLIQEQPGQEQVAAGEAQPG, protein stability index 4.2. Against it:
- NIVEYLIQEQPGQYQVAGGEAQPG — lower, 2.69
- NIVEYLIQEQPGQTQVAGGEAQPG — higher, 4.21
- NIVEYLIQEQPGQVQVAGGEAQPG — lower, 2.61
- NIVEYLIQEQPGQRQVAGGEAQPG — lower, 3.37
- NIVEYLIQEQPGQAQVAGGEAQPG — lower, 4.06
- NIVEYLIQEQPGQIQVAGGEAQPG — lower, 3.25
- NIVEYLIQEQPGQCQVAGGEAQPG — lower, 3.38
- NIVEYLIQEQPGQDQVAGGEAQPG — higher, 4.39
- NIVEYLIQEQPGQLQVAGGEAQPG — lower, 3.06
- NIVEYLIQEQPGQKQVAGGEAQPG — lower, 3.85
- NIVEYLIQEQPGQFQVAGGEAQPG — lower, 2.62
- NIVEYLIQEQPGQGQVAGGEAQPG — lower, 3.84
- NIVEYLIQEQPGQPQVAGGEAQPG — lower, 3.73
- NIVEYLIQEQPGQNQVAGGEAQPG — lower, 3.54
- NIVEYLIQEQPGQMQVAGGEAQPG — lower, 3.34
- NIVEYLIQEQPGQQQVAGGEAQPG — lower, 3.33
- NIVEYLIQEQPGQSQVAGGEAQPG — lower, 3.21
- NIVEYLIQEQPGQHQVAGGEAQPG — lower, 3.48
- NIVEYLIQEQPGQWQVAGGEAQPG — lower, 2.25
- NIVEYLIQEQPGQETVAGGEAQPG — lower, 3.17
- NIVEYLIQEQPGQEKVAGGEAQPG — lower, 3.91
- NIVEYLIQEQPGQEIVAGGEAQPG — lower, 4.08
- NIVEYLIQEQPGQEDVAGGEAQPG — lower, 4.08
- NIVEYLIQEQPGQERVAGGEAQPG — lower, 3.78
- NIVEYLIQEQPGQEVVAGGEAQPG — lower, 3.66
- NIVEYLIQEQPGQEMVAGGEAQPG — lower, 3.78
- NIVEYLIQEQPGQEGVAGGEAQPG — higher, 4.78
- NIVEYLIQEQPGQECVAGGEAQPG — lower, 4.19
- NIVEYLIQEQPGQENVAGGEAQPG — higher, 4.56
- NIVEYLIQEQPGQEPVAGGEAQPG — higher, 4.32
- NIVEYLIQEQPGQELVAGGEAQPG — lower, 3.53
- NIVEYLIQEQPGQEYVAGGEAQPG — lower, 3.67
- NIVEYLIQEQPGQEAVAGGEAQPG — the same, 4.2
- NIVEYLIQEQPGQEWVAGGEAQPG — lower, 3.22
- NIVEYLIQEQPGQEFVAGGEAQPG — lower, 3.24
- NIVEYLIQEQPGQEEVAGGEAQPG — higher, 4.79
- NIVEYLIQEQPGQEHVAGGEAQPG — lower, 4.02
- NIVEYLIQEQPGQESVAGGEAQPG — higher, 4.52
- NIVEYLIQEQPGYEQVAGGEAQPG — lower, 3.72
- NIVEYLIQEQPGREQVAGGEAQPG — lower, 3.79
- NIVEYLIQEQPGWEQVAGGEAQPG — lower, 3.18
- NIVEYLIQEQPGFEQVAGGEAQPG — lower, 3.78
- NIVEYLIQEQPGDEQVAGGEAQPG — lower, 4.11
- NIVEYLIQEQPGEEQVAGGEAQPG — higher, 4.79
- NIVEYLIQEQPGNEQVAGGEAQPG — higher, 4.42
- NIVEYLIQEQPGTEQVAGGEAQPG — lower, 3.94
- NIVEYLIQEQPGKEQVAGGEAQPG — higher, 4.48
- NIVEYLIQEQPGVEQVAGGEAQPG — lower, 4.06
- NIVEYLIQEQPGAEQVAGGEAQPG — lower, 4.02
- NIVEYLIQEQPGPEQVAGGEAQPG — higher, 4.26
- NIVEYLIQEQPGMEQVAGGEAQPG — lower, 3.86
- NIVEYLIQEQPGGEQVAGGEAQPG — lower, 4.18
- NIVEYLIQEQPGIEQVAGGEAQPG — lower, 3.35
- NIVEYLIQEQPGSEQVAGGEAQPG — lower, 3.85
- NIVEYLIQEQPGHEQVAGGEAQPG — lower, 4.04
- NIVEYLIQEQPGLEQVAGGEAQPG — lower, 3.27
- NIVEYLIQEQPGQEQVACGEAQPG — lower, 3.8
- NIVEYLIQEQPGQEQVAMGEAQPG — higher, 4.31
- NIVEYLIQEQPGQEQVADGEAQPG — higher, 5.01
- NIVEYLIQEQPGQEQVAPGEAQPG — higher, 4.3
- NIVEYLIQEQPGQEQVALGEAQPG — lower, 3.54
- NIVEYLIQEQPGQEQVAEGEAQPG — higher, 4.9
- NIVEYLIQEQPGQEQVAFGEAQPG — lower, 2.94
- NIVEYLIQEQPGQEQVANGEAQPG — lower, 4.16
- NIVEYLIQEQPGQEQVAKGEAQPG — lower, 3.75
- NIVEYLIQEQPGQEQVAQGEAQPG — higher, 4.7
- NIVEYLIQEQPGQEQVAHGEAQPG — higher, 4.47
- NIVEYLIQEQPGQEQVAIGEAQPG — lower, 3.85
- NIVEYLIQEQPDQEQVAGGEAQPG — higher, 4.69
- NIVEYLIQEQPPQEQVAGGEAQPG — higher, 4.87
- NIVEYLIQEQPWQEQVAGGEAQPG — lower, 2.89
- NIVEYLIQEQPVQEQVAGGEAQPG — lower, 3.95
- NIVEYLIQEQPMQEQVAGGEAQPG — lower, 4.03
- NIVEYLIQEQPRQEQVAGGEAQPG — lower, 2.94
- NIVEYLIQEQPQQEQVAGGEAQPG — higher, 4.61
- NIVEYLIQEQPSQEQVAGGEAQPG — higher, 4.65
- NIVEYLIQEQPYQEQVAGGEAQPG — lower, 3.12
- NIVEYLIQEQPAQEQVAGGEAQPG — lower, 3.83
- NIVEYLIQEQPCQEQVAGGEAQPG — lower, 4.03
- NIVEYLIQEQPEQEQVAGGEAQPG — higher, 4.73
- NIVEYLIQEQPLQEQVAGGEAQPG — lower, 3.44
- NIVEYLIQEQPNQEQVAGGEAQPG — higher, 4.5
- NIVEYLIQEQPHQEQVAGGEAQPG — higher, 4.24
- NIVEYLIQEQPKQEQVAGGEAQPG — lower, 4.19
- NIVEYLIQEQPFQEQVAGGEAQPG — lower, 3.09
- NIVEYLIQEQPTQEQVAGGEAQPG — lower, 3.87
- NIVEYLIQEQPIQEQVAGGEAQPG — lower, 3.86
- NIVEYLIREQPGQEQVAGGEAQPG — lower, 3.11
- NIVEYLIVEQPGQEQVAGGEAQPG — lower, 3.34
- NIVEYLIWEQPGQEQVAGGEAQPG — lower, 3.33
- NIVEYLITEQPGQEQVAGGEAQPG — higher, 4.88
- NIVEYLIYEQPGQEQVAGGEAQPG — lower, 3.36
- NIVEYLISEQPGQEQVAGGEAQPG — lower, 4.09
- NIVEYLIQEQPGQEQVHGGEAQPG — higher, 4.38
- NIVEYLIQEQPGQEQVCGGEAQPG — lower, 3.37
- NIVEYLIQEQPGQEQVPGGEAQPG — higher, 4.24
- NIVEYLIQEQPGQEQVIGGEAQPG — lower, 3.87
- NIVEYLIQEQPGQEQVEGGEAQPG — higher, 4.6
- NIVEYLIQEQPGQEQVLGGEAQPG — lower, 3.33
- NIVEYLIQEQPGQEQVGGGEAQPG — higher, 4.71
- NIVEYLIQEQPGQEQVTGGEAQPG — lower, 3.91
- NIVEYLIQEQPGQEQVSGGEAQPG — higher, 4.72
- NIVEYLIQEQPGQEQVNGGEAQPG — higher, 5.16
- NIVEYLIQEQPGQEQVQGGEAQPG — lower, 4.07
- NIVEYLIQEQPGQEQVYGGEAQPG — lower, 3.68
- NIVEYLIQEQPGQEQVKGGEAQPG — lower, 4.19
- NIVEYLIQEQPGQEQVFGGEAQPG — lower, 3.59
- NIVEYLIQEQPGQEQVVGGEAQPG — lower, 3.68
- NIVEYLIQEQPGQEQVDGGEAQPG — higher, 4.97
- NIVEYLIQEQPGQEQVMGGEAQPG — lower, 3.96
- NIVEYLIQEQPGQEQVWGGEAQPG — lower, 2.73
- NIVEYLIQEQPGQEQVRGGEAQPG — lower, 3.5
- NIVEYLIQEQPGQEQYAGGEAQPG — lower, 4.05
- NIVEYLIQEQPGQEQTAGGEAQPG — higher, 4.42
- NIVEYLIQEQPGQEQLAGGEAQPG — lower, 3.94
- NIVEYLIQEQPGQEQEAGGEAQPG — higher, 4.35
- NIVEYLIQEQPGQEQDAGGEAQPG — lower, 4.16
- NIVEYLIQEQPGQEQPAGGEAQPG — higher, 4.29
- NIVEYLIQEQPGQEQMAGGEAQPG — higher, 4.68
- NIVEYLIQEQPGQEQGAGGEAQPG — higher, 4.6
- NIVEYLIQEQPGQEQQAGGEAQPG — higher, 4.3
- NIVEYLIQEQPGQEQHAGGEAQPG — higher, 4.36
- NIVEYLIQEQPGQEQNAGGEAQPG — lower, 3.87
- NIVEYLIQEQPGQEQSAGGEAQPG — lower, 3.86
- NIVEYLIQEQPGQEQKAGGEAQPG — higher, 4.29
- NIVEYLIQEQPGQEQCAGGEAQPG — lower, 4.02
- NIVEYLIQEQPGQEQIAGGEAQPG — lower, 3.86
- NIVEYLIQEQPGQEQFAGGEAQPG — lower, 3.03
- NIVEYLIQEQPGQEQRAGGEAQPG — the same, 4.2
- NIVEYLIQEQPGQEQWAGGEAQPG — lower, 3.81
- NIVEYLIQEQPGQEQAAGGEAQPG — higher, 4.52
- NIVEYLIQAQPGQEQVAGGEAQPG — lower, 2.91
- NIVEYLIQMQPGQEQVAGGEAQPG — lower, 3.35
- NIVEYLIQLQPGQEQVAGGEAQPG — lower, 2.27
- NIVEYLIQWQPGQEQVAGGEAQPG — lower, 2.45
- NIVEYLIQPQPGQEQVAGGEAQPG — lower, 3.71
- NIVEYLIQYQPGQEQVAGGEAQPG — lower, 2.42
- NIVEYLIQGQPGQEQVAGGEAQPG — lower, 3.71
- NIVEYLIQSQPGQEQVAGGEAQPG — lower, 3.36
- NIVEYLIQRQPGQEQVAGGEAQPG — lower, 2.88
- NIVEYLIQQQPGQEQVAGGEAQPG — lower, 3.52
- NIVEYLIQIQPGQEQVAGGEAQPG — lower, 2.3
- NIVEYLIQVQPGQEQVAGGEAQPG — lower, 2.06
- NIVEYLIQKQPGQEQVAGGEAQPG — lower, 3.71
- NIVEYLIQHQPGQEQVAGGEAQPG — lower, 2.95
- NIVEYLIQCQPGQEQVAGGEAQPG — lower, 3
- NIVEYLIQNQPGQEQVAGGEAQPG — lower, 3.38
- NIVEYLIQDQPGQEQVAGGEAQPG — higher, 4.49
- NIVEYLIQTQPGQEQVAGGEAQPG — lower, 3.15
- NIVEYLIQFQPGQEQVAGGEAQPG — lower, 2.79
- NIVEYLIQECPGQEQVAGGEAQPG — lower, 3.83
- NIVEYLIQESPGQEQVAGGEAQPG — higher, 4.53
- NIVEYLIQETPGQEQVAGGEAQPG — lower, 3.69
- NIVEYLIQEYPGQEQVAGGEAQPG — lower, 3.09
- NIVEYLIQERPGQEQVAGGEAQPG — lower, 4.03
- NIVEYLIQEVPGQEQVAGGEAQPG — lower, 3.22
- NIVEYLIQENPGQEQVAGGEAQPG — higher, 4.27
- NIVEYLIQEHPGQEQVAGGEAQPG — lower, 3.88
- NIVEYLIQEAPGQEQVAGGEAQPG — higher, 4.34
- NIVEYLIQEEPGQEQVAGGEAQPG — higher, 4.62
- NIVEYLIQEFPGQEQVAGGEAQPG — lower, 3.16
- NIVEYLIQEMPGQEQVAGGEAQPG — lower, 3.21
- NIVEYLIQELPGQEQVAGGEAQPG — lower, 3.43
- NIVEYLIQEWPGQEQVAGGEAQPG — lower, 2
- NIVEYLIQEDPGQEQVAGGEAQPG — higher, 4.37
- NIVEYLIQEIPGQEQVAGGEAQPG — lower, 3.75
- NIVEYLIQEKPGQEQVAGGEAQPG — higher, 4.3
- NIVEYLIQEPPGQEQVAGGEAQPG — higher, 4.54
- NIVEYLIQEQHGQEQVAGGEAQPG — lower, 3.6
- NIVEYLIQEQKGQEQVAGGEAQPG — lower, 3.74
- NIVEYLIQEQSGQEQVAGGEAQPG — lower, 3.96
- NIVEYLIQEQCGQEQVAGGEAQPG — lower, 3.11
- NIVEYLIQEQYGQEQVAGGEAQPG — lower, 2.65
- NIVEYLIQEQFGQEQVAGGEAQPG — lower, 2.75
- NIVEYLIQEQQGQEQVAGGEAQPG — lower, 3.69
- NIVEYLIQEQAGQEQVAGGEAQPG — lower, 3.98
- NIVEYLIQEQVGQEQVAGGEAQPG — lower, 3.28
- NIVEYLIQEQGGQEQVAGGEAQPG — lower, 3.89
- NIVEYLIQEQWGQEQVAGGEAQPG — lower, 2.13
- NIVEYLIQEQNGQEQVAGGEAQPG — lower, 3.8
- NIVEYLIQEQTGQEQVAGGEAQPG — lower, 3.88
- NIVEYLIQEQIGQEQVAGGEAQPG — lower, 2.65
- NIVEYLIQEQLGQEQVAGGEAQPG — lower, 2.21
- NIVEYLIQEQMGQEQVAGGEAQPG — lower, 2.6
- NIVEYLIQEQEGQEQVAGGEAQPG — higher, 4.27
- NIVEYLIQEQDGQEQVAGGEAQPG — higher, 4.47
- NIVEYLIQEQRGQEQVAGGEAQPG — lower, 3.42
